Among the data in US20250011363A1, “OPTIMIZED SHORTENED PEPTIDE THAT BINDS TO ACETYLCHOLINE RECEPTOR, AND USE THEREOF” (SKINMED CO., LTD., priority 2021, published 2025) are Binding affinity (RU) values, retold here.

This assay addresses acetylcholine receptor. Briefly: SPR, peptide at 10 uM on immobilized AchR. (In general: In SPR one partner is held on a chip, and binding of the other changes the refractive index at the surface.)

B1: 6mer-2-1026 (peptide)
peptide: KENHRK
In turn, B1 came in with a Binding affinity (RU) of 33 RU.

B2: 6mer-2-1085 (peptide)
peptide: RPEIRK
B2 had a Binding affinity (RU) of 42 RU.

B3: 6mer-2-1065 (peptide)
peptide: RIANRK
On to B3, for which the Binding affinity (RU) is 27 RU.

B4: 6mer-2-1086 (peptide)
peptide: KNDWRK
B4 registered a Binding affinity (RU) of 21 RU.

B5: 6mer-2-1035 (peptide)
peptide: RPPVKK
The molecule B5 registered a Binding affinity (RU) of 39 RU.

B6: 6mer-2-1025 (peptide)
peptide: RCSHRR
On to B6, for which the Binding affinity (RU) was 39 RU.

B7: 6mer-2-1053 (peptide)
peptide: KEMGKK
With B7, the Binding affinity (RU) turned out to be 34 RU.

B8: 6mer-2-1047 (peptide)
peptide: RHDDKR
As for B8, the Binding affinity (RU) stood at 28 RU.

B9: 6mer-2-1081 (peptide)
peptide: KYKMRR
In turn, B9 gave a Binding affinity (RU) of 32 RU.

B10: 6mer-2-1059 (peptide)
peptide: RFADRR
The molecule B10 displayed a Binding affinity (RU) of 35 RU.

B11: 6mer-2-1076 (peptide)
peptide: RYCIRR
B11 came in with a Binding affinity (RU) of 34 RU.

B12: 6mer-2-1028 (peptide)
peptide: KPEHRR
Consider B12, for which the Binding affinity (RU) was 41 RU.

B13: 6mer-2-1050 (peptide)
peptide: KPPPRK
On to B13, for which the Binding affinity (RU) was 26 RU.

B14: 6mer-2-1087 (peptide)
peptide: KEEMRR
The molecule B14 showed a Binding affinity (RU) of 21 RU.

B15: 6mer-2-1046 (peptide)
peptide: RNSEKR
Molecule B15 came in with a Binding affinity (RU) of 39 RU.

B16: 6mer-2-1055 (peptide)
peptide: KPDFKR
B16 had a Binding affinity (RU) of 30 RU.

B17: 6mer-2-1068 (peptide)
peptide: RIHVKK
The molecule B17 registered a Binding affinity (RU) of 26 RU.

B18: 6mer-2-1029 (peptide)
peptide: KEEFKK
In turn, B18 came in with a Binding affinity (RU) of 40 RU.

B19: 6mer-2-1089 (peptide)
peptide: RKTDRR
As for B19, the Binding affinity (RU) came to 43 RU.

B20: 6mer-2-1022 (peptide)
peptide: KCNPRR
Regarding B20, the Binding affinity (RU) was 22 RU.

B21: 6mer-2-1039 (peptide)
peptide: RNHFRK
B21: the Binding affinity (RU) came to 26 RU.

B22: 6mer-2-1069 (peptide)
peptide: KHDMKK
In turn, B22 displayed a Binding affinity (RU) of 36 RU.

B23: 6mer-2-1075 (peptide)
peptide: RHMERK
As for B23, the Binding affinity (RU) was determined as 31 RU.

B24: 6mer-2-1042 (peptide)
peptide: KKMFRK
With B24, the Binding affinity (RU) worked out at 36 RU.

B25: 6mer-2-1032 (peptide)
peptide: KETVKR
Molecule B25 gave a Binding affinity (RU) of 31 RU.

B26: 6mer-2-1051 (peptide)
peptide: RKHMRR
Molecule B26 had a Binding affinity (RU) of 24 RU.

B27: 6mer-2-1071 (peptide)
peptide: RTTWRK
For B27, the Binding affinity (RU) came to 25 RU.

B28: 6mer-2-1034 (peptide)
peptide: KHSWRR
On to B28, for which the Binding affinity (RU) was determined as 38 RU.

B29: 6mer-2-1074 (peptide)
peptide: RPMGRK
The molecule B29 returned a Binding affinity (RU) of 33 RU.

B30: 6mer-2-1031 (peptide)
peptide: RAWERK
In turn, B30 showed a Binding affinity (RU) of 33 RU.

B31: 6mer-2-1038 (peptide)
peptide: KHWERK
In turn, B31 yielded a Binding affinity (RU) of 33 RU.

B32: 6mer-2-1030 (peptide)
peptide: RAPFKK
In turn, B32 yielded a Binding affinity (RU) of 28 RU.

B33: 6mer-2-1072 (peptide)
peptide: KPHWKR
Turning to B33, the Binding affinity (RU) amounted to 29 RU.

B34: 6mer-2-1036 (peptide)
peptide: KAKNKR
B34 yielded a Binding affinity (RU) of 25 RU.

B35: 6mer-2-1084 (peptide)
peptide: REKPRK
B35 came in with a Binding affinity (RU) of 29 RU.

B36: 6mer-2-1044 (peptide)
peptide: KHTDKK
As for B36, the Binding affinity (RU) was 41 RU.

B37: 6mer-2-1077 (peptide)
peptide: KMTIKK
The molecule B37 came in with a Binding affinity (RU) of 34 RU.

B38: 6mer-2-1054 (peptide)
peptide: KKNKKR
The molecule B38 displayed a Binding affinity (RU) of 43 RU.

B39: 6mer-2-1037 (peptide)
peptide: KIHWKK
B39: the Binding affinity (RU) worked out at 26 RU.

B40: 6mer-2-1062 (peptide)
peptide: KYNIRK
On to B40, for which the Binding affinity (RU) was found to be 35 RU.

B41: 6mer-2-1088 (peptide)
peptide: RPCEKK
B41 gave a Binding affinity (RU) of 39 RU.

B42: 6mer-2-1024 (peptide)
peptide: RFHNKR
The molecule B42 registered a Binding affinity (RU) of 37 RU.

B43: 6mer-2-1080 (peptide)
peptide: RKHKKK
Consider B43, for which the Binding affinity (RU) is 23 RU.

B44: 6mer-2-1052 (peptide)
peptide: KAPARK
B44 had a Binding affinity (RU) of 23 RU.

B45: 6mer-2-1058 (peptide)
peptide: RMPWKK
The molecule B45 returned a Binding affinity (RU) of 24 RU.

B46: 6mer-2-1091 (peptide)
peptide: RFDNKR
In turn, B46 gave a Binding affinity (RU) of 31 RU.

B47: 6mer-2-1067 (peptide)
peptide: RDEIRK
In turn, B47 had a Binding affinity (RU) of 29 RU.

B48: 6mer-2-1061 (peptide)
peptide: KPPIKK
Take B48: the Binding affinity (RU) was determined as 38 RU.

B49: 6mer-2-1045 (peptide)
peptide: RHAHRR
Molecule B49 gave a Binding affinity (RU) of 41 RU.

B50: 6mer-2-1066 (peptide)
peptide: KPEHKR
As for B50, the Binding affinity (RU) worked out at 29 RU.

B51: 6mer-2-1021 (peptide)
peptide: RYTPKR
Turning to B51, the Binding affinity (RU) came out at 39 RU.

B52: 6mer-2-1083 (peptide)
peptide: KTKGKR
The molecule B52 showed a Binding affinity (RU) of 39 RU.

B53: 6mer-2-1043 (peptide)
peptide: RDKGKK
As for B53, the Binding affinity (RU) was found to be 40 RU.

B54: 6mer-2-1063 (peptide)
peptide: RFNVRK
Turning to B54, the Binding affinity (RU) amounted to 24 RU.

B55: 6mer-2-1040 (peptide)
peptide: KYAWRK
With B55, the Binding affinity (RU) was found to be 36 RU.

B56: 6mer-2-1056 (peptide)
peptide: RNDERK
B56 yielded a Binding affinity (RU) of 22 RU.

B57: 6mer-2-1057 (peptide)
peptide: RKKKKK
Turning to B57, the Binding affinity (RU) was 25 RU.

B58: 6mer-2-1078 (peptide)
peptide: KDTFRR
With B58, the Binding affinity (RU) was determined as 40 RU.

B59: 6mer-2-1082 (peptide)
peptide: KYTERR
Turning to B59, the Binding affinity (RU) was determined as 31 RU.

B60: 6mer-2-1048 (peptide)
peptide: RIHNRK
For B60, the Binding affinity (RU) was determined as 22 RU.

B61: 6mer-2-1090 (peptide)
peptide: KEMHKK
In turn, B61 yielded a Binding affinity (RU) of 33 RU.

B62: 6mer-2-1079 (peptide)
peptide: KCNEKK
Molecule B62 yielded a Binding affinity (RU) of 40 RU.

B63: 6mer-2-1073 (peptide)
peptide: KYSWRK
B63 had a Binding affinity (RU) of 24 RU.

B64: 6mer-2-1064 (peptide)
peptide: RCMKRR
B64 registered a Binding affinity (RU) of 39 RU.

B65: 6mer-2-1027 (peptide)
peptide: KTPVKK
With B65, the Binding affinity (RU) amounted to 32 RU.

B66: 6mer-2-1060 (peptide)
peptide: KTNERK
Turning to B66, the Binding affinity (RU) stood at 35 RU.

B67: 6mer-2-1070 (peptide)
peptide: RPHVRR
B67 showed a Binding affinity (RU) of 31 RU.

B68: 6mer-2-1041 (peptide)
peptide: RACDKR
With B68, the Binding affinity (RU) was 22 RU.

B69: 6mer-2-1049 (peptide)
peptide: KMSPRR
For the molecule B69, the Binding affinity (RU) was determined as 26 RU.

B70: 6mer-2-1033 (peptide)
peptide: KMDEKK
On to B70, for which the Binding affinity (RU) was 28 RU.

B71: 6mer-2-1023 (peptide)
peptide: KAEFKR
Take B71: the Binding affinity (RU) amounted to 26 RU.
